From patent publication US12630600B2 (MEDIMMUNE LIMITED, priority 2022, dated 2026)
Starred links: 1 amine or outer side, 2 acyl side, 3 side chain; linkers in the order of their positions; H or OH if unused. Non-standard residues stand in square brackets, D forms with d. Groups on a side chain read outwards from the residue. No end group written: not given here. *: point of attachment. C18 diacid = O=C(O)CCCCCCCCCCCCCCCCC(=O)*; γGlu = O=C(O)[C@H](CCC(=O)[*:2])N[*:1]; αMeF = C[C@](N)(Cc1ccccc1)C(=O)O; AEEA = NCCOCCOCC(=O)O; Aib = CC(C)(N)C(=O)O

B1: Peptide 423 (peptide)
peptide: H[Aib]QGTFTSDVSK[αMeF]LDKK([AEEA-AEEA-γGlu-C18 diacid])RAQDFVRWLK[Aib]TE-OH
modifications: N-terminus assumed
SMILES: CC(C)C[C@H](NC(=O)[C@H](Cc1c[nH]c2ccccc12)NC(=O)[C@H](CCCNC(=N)N)NC(=O)[C@@H](NC(=O)[C@H](Cc1ccccc1)NC(=O)[C@H](CC(=O)O)NC(=O)[C@H](CCC(N)=O)NC(=O)[C@H](C)NC(=O)[C@H](CCCNC(=N)N)NC(=O)[C@H](CCCCNC(=O)COCCOCCNC(=O)COCCOCCNC(=O)CC[C@H](NC(=O)CCCCCCCCCCCCCCCCC(=O)O)C(=O)O)NC(=O)[C@H](CCCCN)NC(=O)[C@H](CC(=O)O)NC(=O)[C@H](CC(C)C)NC(=O)[C@](C)(Cc1ccccc1)NC(=O)[C@H](CCCCN)NC(=O)[C@H](CO)NC(=O)[C@@H](NC(=O)[C@H](CC(=O)O)NC(=O)[C@H](CO)NC(=O)[C@@H](NC(=O)[C@H](Cc1ccccc1)NC(=O)[C@@H](NC(=O)CNC(=O)[C@H](CCC(N)=O)NC(=O)C(C)(C)NC(=O)[C@@H](N)Cc1c[nH]cn1)[C@@H](C)O)[C@@H](C)O)C(C)C)C(C)C)C(=O)N[C@@H](CCCCN)C(=O)NC(C)(C)C(=O)N[C@H](C(=O)N[C@@H](CCC(=O)O)C(=O)O)[C@@H](C)O
B2: Peptide 424 (peptide)
peptide: H[Aib]QGTFTSDVSK[αMeF]LDKK([AEEA-AEEA-γGlu-C18 diacid])RAQDFVRWLL[Aib]TK-OH
modifications: N-terminus assumed
SMILES: CC(C)C[C@H](NC(=O)[C@H](Cc1c[nH]c2ccccc12)NC(=O)[C@H](CCCNC(=N)N)NC(=O)[C@@H](NC(=O)[C@H](Cc1ccccc1)NC(=O)[C@H](CC(=O)O)NC(=O)[C@H](CCC(N)=O)NC(=O)[C@H](C)NC(=O)[C@H](CCCNC(=N)N)NC(=O)[C@H](CCCCNC(=O)COCCOCCNC(=O)COCCOCCNC(=O)CC[C@H](NC(=O)CCCCCCCCCCCCCCCCC(=O)O)C(=O)O)NC(=O)[C@H](CCCCN)NC(=O)[C@H](CC(=O)O)NC(=O)[C@H](CC(C)C)NC(=O)[C@](C)(Cc1ccccc1)NC(=O)[C@H](CCCCN)NC(=O)[C@H](CO)NC(=O)[C@@H](NC(=O)[C@H](CC(=O)O)NC(=O)[C@H](CO)NC(=O)[C@@H](NC(=O)[C@H](Cc1ccccc1)NC(=O)[C@@H](NC(=O)CNC(=O)[C@H](CCC(N)=O)NC(=O)C(C)(C)NC(=O)[C@@H](N)Cc1c[nH]cn1)[C@@H](C)O)[C@@H](C)O)C(C)C)C(C)C)C(=O)N[C@@H](CC(C)C)C(=O)NC(C)(C)C(=O)N[C@H](C(=O)N[C@@H](CCCCN)C(=O)O)[C@@H](C)O
B3: Peptide 428 (peptide)
peptide: H[Aib]QGTFTSDVSK[αMeF]LDTK([AEEA-AEEA-γGlu-γGlu-C18 diacid])RARDFVQWLLE[Aib]G-NH2
modifications: N-terminus assumed
SMILES: CC(C)C[C@H](NC(=O)[C@H](Cc1c[nH]c2ccccc12)NC(=O)[C@H](CCC(N)=O)NC(=O)[C@@H](NC(=O)[C@H](Cc1ccccc1)NC(=O)[C@H](CC(=O)O)NC(=O)[C@H](CCCNC(=N)N)NC(=O)[C@H](C)NC(=O)[C@H](CCCNC(=N)N)NC(=O)[C@H](CCCCNC(=O)COCCOCCNC(=O)COCCOCCNC(=O)CC[C@H](NC(=O)CC[C@H](NC(=O)CCCCCCCCCCCCCCCCC(=O)O)C(=O)O)C(=O)O)NC(=O)[C@@H](NC(=O)[C@H](CC(=O)O)NC(=O)[C@H](CC(C)C)NC(=O)[C@](C)(Cc1ccccc1)NC(=O)[C@H](CCCCN)NC(=O)[C@H](CO)NC(=O)[C@@H](NC(=O)[C@H](CC(=O)O)NC(=O)[C@H](CO)NC(=O)[C@@H](NC(=O)[C@H](Cc1ccccc1)NC(=O)[C@@H](NC(=O)CNC(=O)[C@H](CCC(N)=O)NC(=O)C(C)(C)NC(=O)[C@@H](N)Cc1c[nH]cn1)[C@@H](C)O)[C@@H](C)O)C(C)C)[C@@H](C)O)C(C)C)C(=O)N[C@@H](CC(C)C)C(=O)N[C@@H](CCC(=O)O)C(=O)NC(C)(C)C(=O)NCC(N)=O
B4: Peptide 422 (peptide)
peptide: H[Aib]QGTFTSDVSK[αMeF]LDRK([AEEA-AEEA-γGlu-C18 diacid])RAQDFVRWLL[Aib]TE-NH2
modifications: N-terminus assumed
SMILES: CC(C)C[C@H](NC(=O)[C@H](Cc1c[nH]c2ccccc12)NC(=O)[C@H](CCCNC(=N)N)NC(=O)[C@@H](NC(=O)[C@H](Cc1ccccc1)NC(=O)[C@H](CC(=O)O)NC(=O)[C@H](CCC(N)=O)NC(=O)[C@H](C)NC(=O)[C@H](CCCNC(=N)N)NC(=O)[C@H](CCCCNC(=O)COCCOCCNC(=O)COCCOCCNC(=O)CC[C@H](NC(=O)CCCCCCCCCCCCCCCCC(=O)O)C(=O)O)NC(=O)[C@H](CCCNC(=N)N)NC(=O)[C@H](CC(=O)O)NC(=O)[C@H](CC(C)C)NC(=O)[C@](C)(Cc1ccccc1)NC(=O)[C@H](CCCCN)NC(=O)[C@H](CO)NC(=O)[C@@H](NC(=O)[C@H](CC(=O)O)NC(=O)[C@H](CO)NC(=O)[C@@H](NC(=O)[C@H](Cc1ccccc1)NC(=O)[C@@H](NC(=O)CNC(=O)[C@H](CCC(N)=O)NC(=O)C(C)(C)NC(=O)[C@@H](N)Cc1c[nH]cn1)[C@@H](C)O)[C@@H](C)O)C(C)C)C(C)C)C(=O)N[C@@H](CC(C)C)C(=O)NC(C)(C)C(=O)N[C@H](C(=O)N[C@@H](CCC(=O)O)C(N)=O)[C@@H](C)O
B5: Peptide 426 (peptide)
peptide: H[Aib]QGTFTSDVSK[αMeF]LDKK([AEEA-AEEA-γGlu-C18 diacid])RAQDFVRWLLR[Aib]K-OH
modifications: N-terminus assumed
SMILES: CC(C)C[C@H](NC(=O)[C@H](Cc1c[nH]c2ccccc12)NC(=O)[C@H](CCCNC(=N)N)NC(=O)[C@@H](NC(=O)[C@H](Cc1ccccc1)NC(=O)[C@H](CC(=O)O)NC(=O)[C@H](CCC(N)=O)NC(=O)[C@H](C)NC(=O)[C@H](CCCNC(=N)N)NC(=O)[C@H](CCCCNC(=O)COCCOCCNC(=O)COCCOCCNC(=O)CC[C@H](NC(=O)CCCCCCCCCCCCCCCCC(=O)O)C(=O)O)NC(=O)[C@H](CCCCN)NC(=O)[C@H](CC(=O)O)NC(=O)[C@H](CC(C)C)NC(=O)[C@](C)(Cc1ccccc1)NC(=O)[C@H](CCCCN)NC(=O)[C@H](CO)NC(=O)[C@@H](NC(=O)[C@H](CC(=O)O)NC(=O)[C@H](CO)NC(=O)[C@@H](NC(=O)[C@H](Cc1ccccc1)NC(=O)[C@@H](NC(=O)CNC(=O)[C@H](CCC(N)=O)NC(=O)C(C)(C)NC(=O)[C@@H](N)Cc1c[nH]cn1)[C@@H](C)O)[C@@H](C)O)C(C)C)C(C)C)C(=O)N[C@@H](CC(C)C)C(=O)N[C@@H](CCCNC(=N)N)C(=O)NC(C)(C)C(=O)N[C@@H](CCCCN)C(=O)O
B6: Peptide 425 (peptide)
peptide: H[Aib]QGTFTSDVSK[αMeF]LDKK([AEEA-AEEA-γGlu-C18 diacid])RAQDFVRWLKA[Aib]G-OH
modifications: N-terminus assumed
SMILES: CC(C)C[C@H](NC(=O)[C@H](Cc1c[nH]c2ccccc12)NC(=O)[C@H](CCCNC(=N)N)NC(=O)[C@@H](NC(=O)[C@H](Cc1ccccc1)NC(=O)[C@H](CC(=O)O)NC(=O)[C@H](CCC(N)=O)NC(=O)[C@H](C)NC(=O)[C@H](CCCNC(=N)N)NC(=O)[C@H](CCCCNC(=O)COCCOCCNC(=O)COCCOCCNC(=O)CC[C@H](NC(=O)CCCCCCCCCCCCCCCCC(=O)O)C(=O)O)NC(=O)[C@H](CCCCN)NC(=O)[C@H](CC(=O)O)NC(=O)[C@H](CC(C)C)NC(=O)[C@](C)(Cc1ccccc1)NC(=O)[C@H](CCCCN)NC(=O)[C@H](CO)NC(=O)[C@@H](NC(=O)[C@H](CC(=O)O)NC(=O)[C@H](CO)NC(=O)[C@@H](NC(=O)[C@H](Cc1ccccc1)NC(=O)[C@@H](NC(=O)CNC(=O)[C@H](CCC(N)=O)NC(=O)C(C)(C)NC(=O)[C@@H](N)Cc1c[nH]cn1)[C@@H](C)O)[C@@H](C)O)C(C)C)C(C)C)C(=O)N[C@@H](CCCCN)C(=O)N[C@@H](C)C(=O)NC(C)(C)C(=O)NCC(=O)O
B7: Peptide 427 (peptide)
peptide: H[Aib]QGTFTSDVSK[αMeF]LDTK([AEEA-AEEA-γGlu-C18 diacid])RARDFVQWLLE[Aib]G-NH2
modifications: N-terminus assumed
SMILES: CC(C)C[C@H](NC(=O)[C@H](Cc1c[nH]c2ccccc12)NC(=O)[C@H](CCC(N)=O)NC(=O)[C@@H](NC(=O)[C@H](Cc1ccccc1)NC(=O)[C@H](CC(=O)O)NC(=O)[C@H](CCCNC(=N)N)NC(=O)[C@H](C)NC(=O)[C@H](CCCNC(=N)N)NC(=O)[C@H](CCCCNC(=O)COCCOCCNC(=O)COCCOCCNC(=O)CC[C@H](NC(=O)CCCCCCCCCCCCCCCCC(=O)O)C(=O)O)NC(=O)[C@@H](NC(=O)[C@H](CC(=O)O)NC(=O)[C@H](CC(C)C)NC(=O)[C@](C)(Cc1ccccc1)NC(=O)[C@H](CCCCN)NC(=O)[C@H](CO)NC(=O)[C@@H](NC(=O)[C@H](CC(=O)O)NC(=O)[C@H](CO)NC(=O)[C@@H](NC(=O)[C@H](Cc1ccccc1)NC(=O)[C@@H](NC(=O)CNC(=O)[C@H](CCC(N)=O)NC(=O)C(C)(C)NC(=O)[C@@H](N)Cc1c[nH]cn1)[C@@H](C)O)[C@@H](C)O)C(C)C)[C@@H](C)O)C(C)C)C(=O)N[C@@H](CC(C)C)C(=O)N[C@@H](CCC(=O)O)C(=O)NC(C)(C)C(=O)NCC(N)=O

Molecular target: human GLP-1 receptor (human, UniProt P43220)
Assay: cell-based or functional assay

Question: With B1 as the binder, how does the “cAMP production EC50” value read?
Answer: Its value is 0.0261 nM.

Question: Which “cAMP production EC50” value does the source give for B2 here?
Answer: The value was 0.0155 nM.

Question: For B3, which “cAMP production EC50” value is on record?
Answer: Its value is 0.0331 nM.

Question: With B4 as the binder, how does the “cAMP production EC50” value read?
Answer: The value was 0.0276 nM.

Question: B5 was tested. Which “cAMP production EC50” value did it give?
Answer: Its value is 0.0073 nM.

Question: Which “cAMP production EC50” value does the source give for B6 here?
Answer: The value was 0.0115 nM.

Question: B7 was tested. Which “cAMP production EC50” value did it give?
Answer: The value was 0.0124 nM.

Molecular target: human glucagon receptor (human, UniProt P47871)
Assay: cell-based or functional assay

Question: Which “cAMP production EC50” value does the source give for B1 here?
Answer: Its value is 2.22 nM.

Question: With B2 as the binder, how does the “cAMP production EC50” value read?
Answer: Its value is 0.129 nM.

Question: Which “cAMP production EC50” value does the source give for B3 here?
Answer: The value was 0.0105 nM.

Question: How did the “cAMP production EC50” value turn out when B4 was run?
Answer: Its value is 0.123 nM.

Question: With B5 as the binder, how does the “cAMP production EC50” value read?
Answer: Its value is 0.0612 nM.

Question: How did the “cAMP production EC50” value turn out when B6 was run?
Answer: The value was 0.827 nM.

Question: For B7, which “cAMP production EC50” value is on record?
Answer: Its value is 0.0472 nM.
